This test has as its target T1, hPD-L1-ECD.mFc, W315-hPro1.ECD.mFc (in house) (human, UniProt Q9NZQ7 19-238).
T1 construct: extracellular domain; also called Human PD-L1, mFc tag; not shown: C-terminal mouse Fc
The experiment in a line: dual binding (bridging) ELISA: plate coated with hVEGF.his, titrated antibody, then hPD-L1-ECD.mFc at 1 ug/ml, HRP goat anti-mouse IgG. (ELISA stands for enzyme-linked immunosorbent assay.)

We go through 1 molecule from patent publication US20250026833A1 (WUXI BIOLOGICS IRELAND, published 2025).

T1 sequence (Q9NZQ7 19-238): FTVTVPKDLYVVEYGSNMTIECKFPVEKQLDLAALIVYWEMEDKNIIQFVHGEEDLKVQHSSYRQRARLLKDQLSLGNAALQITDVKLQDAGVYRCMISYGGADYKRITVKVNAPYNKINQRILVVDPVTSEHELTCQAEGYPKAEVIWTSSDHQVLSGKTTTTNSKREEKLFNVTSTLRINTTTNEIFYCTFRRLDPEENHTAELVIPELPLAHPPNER

B1: Avastin (bevacizumab) (antibody, human IgG1, V domains shown)
VH: EVQLVESGGGLVQPGGSLRLSCAASGYTFTNYGMNWVRQAPGKGLEWVGWINTYTGEPTYAADFKRRFTFSLDTSKSTAYLQMNSLRAEDTAVYYCAKYPHYYGSSHWYFDVWGQGTLVTVSS
VL: DIQMTQSPSSLSASVGDRVTITCSASQDISNYLNWYQQKPGKAPKVLIYFTSSLHSGVPSRFSGSGSGTDFTLTISSLQPEDFATYYCQQYSTVPWTFGQGTKVEIK
notes: also called parental anti-VEGF antibody
With B1, the binding result is reported as “no binding (tested: 100 nM)”.
